This is an account of results in the Human Domainome abundance scans (Beltran et al. 2025).

Sequences and labels used below:
B1: SWI/SNF-related matrix-associated actin-dependent regulator of chromatin subfamily B member 1, residues 181 to 248; numbered along this chain, Q12824 (parent)
chain: SQPEVLVPIRLDMEIDGQKLRDAFTWNMNEKLMTPEMFSEILCDDLDLNPLTFVPAIASAIRQQIESY

± gives the uncertainty stated by the source.

The variants in the data set derive from B1. Nature of the data set: abundance fitness (aPCA) (normalised: wild type 0, dead -1); higher = more abundant; growth selection in yeast, the domain comes from the species named. The following applies: Homo sapiens.
SQPEVLVPIRLDMEVDGQKLRDAFTWNMNEKLMTPEMFSEILCDDLDLNPLTFVPAIASAIRQQIESY [I15V]: the abundance fitness is -0.516 ± 0.088.

For the variant SQPEVLVPIRLDMERDGQKLRDAFTWNMNEKLMTPEMFSEILCDDLDLNPLTFVPAIASAIRQQIESY [I15R], the abundance fitness is -0.722 ± 0.12.

In the case of SQPEVLVPIRLDMEIDGQKLRDAFTWNMNEKLMTPEMFSEILCDDLDLNPLTFVPAIASAIRQQINSY [E66N], the abundance fitness is -0.227 ± 0.11.

For the variant SQPEVLVPIRLDMEIDGQKLRDAFTWNMNEKLMTPEMFSEILCDDLDLNPLTFVPAIASAIRQQIHSY [E66H], the abundance fitness is -0.45 ± 0.3.

SQPEVLVPIRLDMEIDGQKLRDAFTWNMNEKLMTPEMFSEILCDDLDLNWLTFVPAIASAIRQQIESY [P50W]: the abundance fitness is -0.845 ± 0.14.

SQPEVLVPIRLDMEIDGQKLRDAFTWNMNEKLMTPEMFSEILCDDLDLNCLTFVPAIASAIRQQIESY [P50C]: the abundance fitness was -0.751 ± 0.49.

On to SQPEVLVPIRLDMEIDGQKLRDAFTWNMNERLMTPEMFSEILCDDLDLNPLTFVPAIASAIRQQIESY [K31R], for which the abundance fitness was -0.113 ± 0.043.

As for SQPEVLVPIRLDMEIDGQKLRDAFTWNMNEKLMTPEMFSEILCDDLDLNPLTFVPAIASAIRQWIESY [Q64W], the abundance fitness was -0.618 ± 0.097.

As for SQPEVLVPIRLDMEIDGQKLRDAFTWNMNEKLMTPEMFSEILCDDLDLNPLTFVPAIASAIRQTIESY [Q64T], the abundance fitness was -0.658 ± 0.086.

Turning to SQPEVLVPIRLDMEIDGQKLRDAFTWNMNEKLMTPEMFSEILCDDLDLNPLTFVPAIASAIRQVIESY [Q64V], the abundance fitness is -0.941 ± 0.1.

Turning to SQPEVLVVIRLDMEIDGQKLRDAFTWNMNEKLMTPEMFSEILCDDLDLNPLTFVPAIASAIRQQIESY [P8V], the abundance fitness was -0.315 ± 0.074.

SQPEVLVPIRLDMEIDGQKLRDAFTWNMNEKLMTPEMFSEINCDDLDLNPLTFVPAIASAIRQQIESY [L42N]: the abundance fitness was -0.549 ± 0.11.

Consider SQPEVLVPIRLDMEIDGQKLRDAFTWNMNEKLMTPEMFSEILCDDLDLNPLTFVPSIASAIRQQIESY [A56S], for which the abundance fitness is -0.278 ± 0.03.

Regarding SQPEVLVPIRLDMEIDGQKLRDAFTWNMNEKLMTPEMFSEILCDDLDLNPLTFVPGIASAIRQQIESY [A56G], the abundance fitness is -0.523 ± 0.049.

On to SQPEVLVPIRLDMWIDGQKLRDAFTWNMNEKLMTPEMFSEILCDDLDLNPLTFVPAIASAIRQQIESY [E14W], for which the abundance fitness was -0.96 ± 0.25.

Regarding SQPEVLVPIRLDMLIDGQKLRDAFTWNMNEKLMTPEMFSEILCDDLDLNPLTFVPAIASAIRQQIESY [E14L], the abundance fitness was -0.299 ± 0.094.

Consider SQPEVLVPIRLDMYIDGQKLRDAFTWNMNEKLMTPEMFSEILCDDLDLNPLTFVPAIASAIRQQIESY [E14Y], for which the abundance fitness was -0.633 ± 0.35.

Turning to SQPEVLVPIRLDMGIDGQKLRDAFTWNMNEKLMTPEMFSEILCDDLDLNPLTFVPAIASAIRQQIESY [E14G], the abundance fitness was -0.819 ± 0.16.

In the case of SQPEVLVPIRLDMEIDGQKLRDAFTWNMNEKLFTPEMFSEILCDDLDLNPLTFVPAIASAIRQQIESY [M33F], the abundance fitness was -0.542 ± 0.26.

As to SQDEVLVPIRLDMEIDGQKLRDAFTWNMNEKLMTPEMFSEILCDDLDLNPLTFVPAIASAIRQQIESY [P3D], the abundance fitness is 0.266 ± 0.074.

For the variant SQPEVLVPIRLDMEIDGQKLRDAFTWNMNEKLMTPEMFSEILCDDLDLRPLTFVPAIASAIRQQIESY [N49R], the abundance fitness is -0.789 ± 0.09.

As for SQPEVLVPIRLDMEIDGQKLRDACTWNMNEKLMTPEMFSEILCDDLDLNPLTFVPAIASAIRQQIESY [F24C], the abundance fitness is -0.702 ± 0.15.

As to SQPEVLVPIRLDMEIDGQKLRDAFTWNMLEKLMTPEMFSEILCDDLDLNPLTFVPAIASAIRQQIESY [N29L], the abundance fitness was -0.939 ± 0.25.

On to SQPEVLVPIRLDMEIDGQKLRDAFTWNMNEKLMTPEMFSEILHDDLDLNPLTFVPAIASAIRQQIESY [C43H], for which the abundance fitness is -0.956 ± 0.15.

Consider SQPEVLVPIRLDMEIDGQKLRDAFTWNMNEKLMTPEMFSEILQDDLDLNPLTFVPAIASAIRQQIESY [C43Q], for which the abundance fitness was -0.72 ± 0.11.

Turning to SQPEVLVPIRLDMEIDGQKLRDAFTWNMNEKLMTPEMMSEILCDDLDLNPLTFVPAIASAIRQQIESY [F38M], the abundance fitness was -0.637 ± 0.48.

Consider SQPEVLVPIRLDMEIDGQKLRDAFTWNMNEKLMTPEMLSEILCDDLDLNPLTFVPAIASAIRQQIESY [F38L], for which the abundance fitness is -0.284 ± 0.17.

Take SQPEVLVPIRLDMEIDGQKLRDAFTWNMNEKLMTPEMFSEILCDDLDLNPLTFVPAIASCIRQQIESY [A60C]: the abundance fitness was -0.068 ± 0.082.

In the case of SQPEVLVPIRLDMEIDGQKLRDAFTWNMNEKLMTPEMFSEILCDDLDLNPLTFVPAIASQIRQQIESY [A60Q], the abundance fitness turned out to be 0.068 ± 0.049.

SQPEVLVPIRLDMEIDGQKLRDAFTWNMNEKLMTPEMFSEILCDDLDLNPLTFVPAIASHIRQQIESY [A60H]: the abundance fitness was -0.311 ± 0.066.

In the case of SQPEVLVPIRLDMEIDGQKLLDAFTWNMNEKLMTPEMFSEILCDDLDLNPLTFVPAIASAIRQQIESY [R21L], the abundance fitness was -0.204 ± 0.062.

For the variant SQPEVLVPIRLDMEIDGQKLCDAFTWNMNEKLMTPEMFSEILCDDLDLNPLTFVPAIASAIRQQIESY [R21C], the abundance fitness is 0.096 ± 0.066.

With SQPEVLVPIRLDMEIDGQKLRDAFTWNMNEKLMTPEMFSEILCDGLDLNPLTFVPAIASAIRQQIESY [D45G], the abundance fitness was -0.185 ± 0.26.

For the variant SQPEVLVPIRLDMEIDGQKLRDAFTWNMNEKLMTPEMFSEILCDRLDLNPLTFVPAIASAIRQQIESY [D45R], the abundance fitness was 0.193 ± 0.15.

Take SQPEVLVPIRLDMEIDGQKLRDAFTWNMNEKLMTPEMFSEILCDDLDLNPLTFVPAMASAIRQQIESY [I57M]: the abundance fitness is -0.417 ± 0.068.

As for SQPEVLVPIMLDMEIDGQKLRDAFTWNMNEKLMTPEMFSEILCDDLDLNPLTFVPAIASAIRQQIESY [R10M], the abundance fitness was -0.273 ± 0.28.

On to SQPEVLVPIRLDMEIDGQKLRDAFPWNMNEKLMTPEMFSEILCDDLDLNPLTFVPAIASAIRQQIESY [T25P], for which the abundance fitness was -0.314 ± 0.084.

In the case of SQPEVLVPIRLDMEIDGQKLRDAFTWNMNEKFMTPEMFSEILCDDLDLNPLTFVPAIASAIRQQIESY [L32F], the abundance fitness stood at 0.09 ± 0.079.

SQPEVLVPIRLDMEIDGQKLRDAFTWNMNEKKMTPEMFSEILCDDLDLNPLTFVPAIASAIRQQIESY [L32K]: the abundance fitness is 0.176 ± 0.058.

In the case of SQPEVLVPIRLDMEIDGQKLRDAFTWNMNEKMMTPEMFSEILCDDLDLNPLTFVPAIASAIRQQIESY [L32M], the abundance fitness was 0.085 ± 0.046.
